The results in this text go back to patent publication US20210238260.

A word on the kcat: it is the maximal rate divided by the concentration of active sites. The term kcat/KM denotes the turnover number divided by the Michaelis constant. Broadly, the KM is the substrate concentration at which the rate is half of its maximum.

The target in series [1] is plasma purified human AT-III (antithrombin III). The experiment in a line: AT-III/UFH inhibition K0.5, ratio to Catalyst Biosciences WT FIXa.
Series [2] has as its target plasma purified human antithrombin III (AT-III), as complex with unfractionated heparin. Kind of series: ratio of K0.5 (lower limit) to Catalyst Biosciences WT FIXa, AT-III/UFH inhibition.

Some results are limits rather than exact numbers.

Factor X, P00742, sequence (P00742 whole entry, looked up): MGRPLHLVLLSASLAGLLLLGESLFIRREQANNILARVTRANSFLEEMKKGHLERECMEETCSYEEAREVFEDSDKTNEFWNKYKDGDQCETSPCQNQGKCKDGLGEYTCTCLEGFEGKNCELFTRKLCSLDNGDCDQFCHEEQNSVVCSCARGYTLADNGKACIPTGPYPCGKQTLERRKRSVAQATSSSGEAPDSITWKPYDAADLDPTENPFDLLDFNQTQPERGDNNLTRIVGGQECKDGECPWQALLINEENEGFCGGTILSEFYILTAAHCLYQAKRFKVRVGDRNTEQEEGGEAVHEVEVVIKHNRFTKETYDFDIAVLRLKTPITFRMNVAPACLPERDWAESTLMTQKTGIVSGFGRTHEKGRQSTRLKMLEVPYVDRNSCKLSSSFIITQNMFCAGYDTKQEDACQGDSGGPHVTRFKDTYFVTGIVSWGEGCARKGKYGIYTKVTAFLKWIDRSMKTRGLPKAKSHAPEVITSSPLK
Factor X (FX), P00742, sequence (P00742 whole entry, looked up): as above

B1: FIXa-Y155F/K228N/R318Y/R338E/R403E/E410N (protein)
chain 1: YNSGKLEEFVQGNLERECMEEKCSFEEAREVFENTERTTEFWKQYVDGDQCESNPCLNGGSCKDDINSYECWCPFGFEGKNCELDVTCNIKNGRCEQFCKNSADNKVVCSCTEGYRLAENQKSCEPAVPFPCGRVSVSQTSKLTR
chain 2: VVGGEDAKPGQFPWQVVLNGKVDAFCGGSIVNEKWIVTAAHCVETGVNITVVAGEHNIEETEHTEQKRNVIRIIPHHNYNAAINKYNHDIALLELDEPLVLNSYVTPICIADKEYTNIFLKFGSGYVSGWGRVFHKGYSALVLQYLRVPLVDRATCLESTKFTIYNNMFCAGFHEGGRDSCQGDSGGPHVTEVEGTSFLTGIISWGEECAMKGKYGIYTKVSEYVNWIKNKTKLT
Take B1: in the series with Factor X (FX), P00742, the “% of WT kcat/KM” value amounted to 356%, the kcat worked out at 9.7 s⁻¹ and the kcat/KM worked out at 1.6e+08 M⁻¹ s⁻¹. In the series with Factor X, P00742, the “% of WT kcat/KM” value is reported as 453%, the KM came to 48 nM and the catalytic efficiency (kcat/KM) stood at 2e+08 M⁻¹ s⁻¹. Moreover, in series [1], the K0.5-mut/K0.5-wt was over 517. For the same protein, in series [2], the K0.5-mut/K0.5-wt came to 517.

B2: FIXa-D85N/K228N/R318Y/R338E/R403E/E410N (protein)
chain 1: YNSGKLEEFVQGNLERECMEEKCSFEEAREVFENTERTTEFWKQYVDGDQCESNPCLNGGSCKDDINSYECWCPFGFEGKNCELNVTCNIKNGRCEQFCKNSADNKVVCSCTEGYRLAENQKSCEPAVPFPCGRVSVSQTSKLTR
chain 2: VVGGEDAKPGQFPWQVVLNGKVDAFCGGSIVNEKWIVTAAHCVETGVNITVVAGEHNIEETEHTEQKRNVIRIIPHHNYNAAINKYNHDIALLELDEPLVLNSYVTPICIADKEYTNIFLKFGSGYVSGWGRVFHKGYSALVLQYLRVPLVDRATCLESTKFTIYNNMFCAGFHEGGRDSCQGDSGGPHVTEVEGTSFLTGIISWGEECAMKGKYGIYTKVSEYVNWIKNKTKLT
Consider B2, for which, in the series with Factor X (FX), P00742, the “% of WT kcat/KM” value came to 336%, the kcat was determined as 6 s⁻¹ and the kcat/KM came out at 1.6e+08 M⁻¹ s⁻¹. Besides, in the series with Factor X, P00742, the “% of WT kcat/KM” value is recorded as 346%, the KM was 39.3 nM and the kcat/KM is 1.6e+08 M⁻¹ s⁻¹. In series [1], the K0.5-mut/K0.5-wt is over 517. Further, in series [2], the K0.5-mut/K0.5-wt was found to be 517.

B3: FIXa-R318Y/R338E/N346D/R403E/E410N (protein)
chain 1: YNSGKLEEFVQGNLERECMEEKCSFEEAREVFENTERTTEFWKQYVDGDQCESNPCLNGGSCKDDINSYECWCPFGFEGKNCELDVTCNIKNGRCEQFCKNSADNKVVCSCTEGYRLAENQKSCEPAVPFPCGRVSVSQTSKLTR
chain 2: VVGGEDAKPGQFPWQVVLNGKVDAFCGGSIVNEKWIVTAAHCVETGVKITVVAGEHNIEETEHTEQKRNVIRIIPHHNYNAAINKYNHDIALLELDEPLVLNSYVTPICIADKEYTNIFLKFGSGYVSGWGRVFHKGYSALVLQYLRVPLVDRATCLESTKFTIYDNMFCAGFHEGGRDSCQGDSGGPHVTEVEGTSFLTGIISWGEECAMKGKYGIYTKVSEYVNWIKNKTKLT
With B3, in the series with Factor X (FX), P00742, the Michaelis constant (KM) was 77.7 nM and the kcat of FX activation by FIXa (Xase complex with FVIIIa, PC/PS vesicles, Ca2+) was determined as 2.5 s⁻¹. The K0.5-mut/K0.5-wt in series [1] was over 517. Also, in series [2], the K0.5-mut/K0.5-wt stood at 517.

B4: FIXa D104N/K106S/K228N/K247N/N249S/R318Y/R338E/R403E/E410N (protein)
chain 1: YNSGKLEEFVQGNLERECMEEKCSFEEAREVFENTERTTEFWKQYVDGDQCESNPCLNGGSCKDDINSYECWCPFGFEGKNCELDVTCNIKNGRCEQFCKNSANNSVVCSCTEGYRLAENQKSCEPAVPFPCGRVSVSQTSKLTR
chain 2: VVGGEDAKPGQFPWQVVLNGKVDAFCGGSIVNEKWIVTAAHCVETGVNITVVAGEHNIEETEHTEQNRSVIRIIPHHNYNAAINKYNHDIALLELDEPLVLNSYVTPICIADKEYTNIFLKFGSGYVSGWGRVFHKGYSALVLQYLRVPLVDRATCLESTKFTIYNNMFCAGFHEGGRDSCQGDSGGPHVTEVEGTSFLTGIISWGEECAMKGKYGIYTKVSEYVNWIKNKTKLT
B4: the KM (FX activation by FIXa in the Xase complex with FVIIIa, PC/PS vesicles and Ca2+) with Factor X (FX), P00742 is 53.3 nM. In the series with Factor X, P00742, the “% of WT kcat/KM” value is reported as 239% and the kcat/KM came out at 1.1e+08 M⁻¹ s⁻¹.

B5: FIXa-K228N/R318Y/R338E/R403E/E410N (protein)
chain 1: YNSGKLEEFVQGNLERECMEEKCSFEEAREVFENTERTTEFWKQYVDGDQCESNPCLNGGSCKDDINSYECWCPFGFEGKNCELDVTCNIKNGRCEQFCKNSADNKVVCSCTEGYRLAENQKSCEPAVPFPCGRVSVSQTSKLTR
chain 2: VVGGEDAKPGQFPWQVVLNGKVDAFCGGSIVNEKWIVTAAHCVETGVNITVVAGEHNIEETEHTEQKRNVIRIIPHHNYNAAINKYNHDIALLELDEPLVLNSYVTPICIADKEYTNIFLKFGSGYVSGWGRVFHKGYSALVLQYLRVPLVDRATCLESTKFTIYNNMFCAGFHEGGRDSCQGDSGGPHVTEVEGTSFLTGIISWGEECAMKGKYGIYTKVSEYVNWIKNKTKLT
For the protein B5, in the series with Factor X, P00742, the “% of WT kcat/KM” value is 349%, the Michaelis-Menten constant (KM) stood at 36.1 nM and the specificity constant (kcat/KM) came out at 1.6e+08 M⁻¹ s⁻¹. The K0.5-mut/K0.5-wt in series [1] was over 517. Further, the K0.5-mut/K0.5-wt in series [2] is 517.

B6: FIXa-I251S/R318Y/R338E/R403E/E410N (protein)
chain 1: YNSGKLEEFVQGNLERECMEEKCSFEEAREVFENTERTTEFWKQYVDGDQCESNPCLNGGSCKDDINSYECWCPFGFEGKNCELDVTCNIKNGRCEQFCKNSADNKVVCSCTEGYRLAENQKSCEPAVPFPCGRVSVSQTSKLTR
chain 2: VVGGEDAKPGQFPWQVVLNGKVDAFCGGSIVNEKWIVTAAHCVETGVKITVVAGEHNIEETEHTEQKRNVSRIIPHHNYNAAINKYNHDIALLELDEPLVLNSYVTPICIADKEYTNIFLKFGSGYVSGWGRVFHKGYSALVLQYLRVPLVDRATCLESTKFTIYNNMFCAGFHEGGRDSCQGDSGGPHVTEVEGTSFLTGIISWGEECAMKGKYGIYTKVSEYVNWIKNKTKLT
Regarding B6, in the series with Factor X (FX), P00742, the “% of WT kcat/KM” value is reported as 334%, the kcat came out at 4.8 s⁻¹ and the kcat/KM turned out to be 1.5e+08 M⁻¹ s⁻¹. Moreover, in the series with Factor X, P00742, the “% of WT kcat/KM” value is 344%, the KM was found to be 33.4 nM and the catalytic efficiency (kcat/KM) is 1.5e+08 M⁻¹ s⁻¹. Further, the K0.5-mut/K0.5-wt in series [1] was over 517. Moreover, the K0.5-mut/K0.5-wt in series [2] stood at 517.

B7: FIXa-R318Y/R338E/R403E/T412A (protein)
chain 1: YNSGKLEEFVQGNLERECMEEKCSFEEAREVFENTERTTEFWKQYVDGDQCESNPCLNGGSCKDDINSYECWCPFGFEGKNCELDVTCNIKNGRCEQFCKNSADNKVVCSCTEGYRLAENQKSCEPAVPFPCGRVSVSQTSKLTR
chain 2: VVGGEDAKPGQFPWQVVLNGKVDAFCGGSIVNEKWIVTAAHCVETGVKITVVAGEHNIEETEHTEQKRNVIRIIPHHNYNAAINKYNHDIALLELDEPLVLNSYVTPICIADKEYTNIFLKFGSGYVSGWGRVFHKGYSALVLQYLRVPLVDRATCLESTKFTIYNNMFCAGFHEGGRDSCQGDSGGPHVTEVEGTSFLTGIISWGEECAMKGKYGIYTKVSEYVNWIKEKAKLT
For B7, the results for the K0.5-mut/K0.5-wt in series [1] and in series [2] were over 517 and 517, respectively.

B8: FIXa-D104N/K106S/I251S/R318Y/R338E/R403E/E410N (protein)
chain 1: YNSGKLEEFVQGNLERECMEEKCSFEEAREVFENTERTTEFWKQYVDGDQCESNPCLNGGSCKDDINSYECWCPFGFEGKNCELDVTCNIKNGRCEQFCKNSANNSVVCSCTEGYRLAENQKSCEPAVPFPCGRVSVSQTSKLTR
chain 2: VVGGEDAKPGQFPWQVVLNGKVDAFCGGSIVNEKWIVTAAHCVETGVKITVVAGEHNIEETEHTEQKRNVSRIIPHHNYNAAINKYNHDIALLELDEPLVLNSYVTPICIADKEYTNIFLKFGSGYVSGWGRVFHKGYSALVLQYLRVPLVDRATCLESTKFTIYNNMFCAGFHEGGRDSCQGDSGGPHVTEVEGTSFLTGIISWGEECAMKGKYGIYTKVSEYVNWIKNKTKLT
Consider B8, for which, in the series with Factor X (FX), P00742, the “% of WT kcat/KM” value worked out at 263%, the kcat came to 5.5 s⁻¹ and the specificity constant (kcat/KM) is 1.2e+08 M⁻¹ s⁻¹. For the same protein, the K0.5-mut/K0.5-wt in series [1] is over 517. The K0.5-mut/K0.5-wt in series [2] amounted to 517.
